Assay results published in patent US20080317723A1, “LYMPHATIC ENDOTHELIAL CELLS MATERIALS AND METHODS” (VEGENICS LIMITED, priority 2001, published 2008).

Biological target: T1, hVEGFR-2 (Homo sapiens, UniProt P35968)
T1 construct: Receptor domains were coupled to the carboxymethylated dextran layer of a CM5 sensor chip
Assay: Biosensor (BIAcore) analysis of ligand binding to immobilized VEGFR-2
Details: hVEGFR-2 bivalent immunoglobulin fusion protein immobilized; global fitting, 1:1 Langmuirian model with mass transfer
Procedure: Biosensor Analysis. All preparations were analysed for homogeneity and buffer exchanged by micropreparative size exclusion HPLC using a Superose 12 (3.2/30) column installed in a SMART system (Amersham Pharmacia Biotech, Uppsala, Sweden) immediately prior to use (Nice and Catimel, Bioessays, 21:339-352, 1999). The concentrations of VEGF-C and VEGF-D were determined by absorbance at 280 nm using E280 1% 1 cm of 0-65. Receptor domains were coupled to the carboxymethylated dextran layer of a CM5 sensor chip using standard amine coupling chemistry (Nice and Catimel, Bioessays, 21:339-352, 1999) for analysis of ligad binding using a BIAcore 2000 optical biosensor (BIAcore, Uppsala, Sweden). The levels immobilized were 3,000 RU and 7,000 RU for VEGFR-2 and VEGFR-3, respectively. Following immobilization, residual activated ester groups were blocked by treatment with 1 M ethanolamine hydrochloride pH 8.5 followed by washing with 10 mM diethylamine to remove non-covalently bound material. 10 mM diethylamine or 10 mM HCl was used to regenerate the sensor surface between analyses for VEGF-D or VEGF-C binding, respectively. Samples were diluted in running buffer (10 mM HEPES pH 7.4, 150 mM NaCl, 3.4 mM EDTA, 0.005% Tween 20). The apparent binding affinities of VEGF-C and VEGF-C156S to receptor domains were determined by analysis of the initial dissociation phase to obtain the kd, which was then used to constrain a global analysis of the association region of the curves, assuming a 1:1 Langmuirian model. Data were analysed using BLAevaluation 3.0 (BIAcore, Uppsala, Sweden) as described previously (Catimel et al., J. Chromatogr., 776:15-30, 1997).
Biosensor analysis was used to further investigate the interactions of VEGF-C and VEGF-C156S with VEGFR-2 and VEGFR-3. Analysis of the biosensor binding curves confirmed that VEGF-C156S binds only to the extracellular domain of VEGFR-3, whereas wild type VEGF-C bound to both VEGFR-2 and VEGFR-3 receptors (FIG. 1D-FIG. 1G). […] However, in both assays the affinity of VEGF-C was higher towards VEGFR-3 than towards VEGFR-2.

T1 sequence (P35968 20-764 limits assumed): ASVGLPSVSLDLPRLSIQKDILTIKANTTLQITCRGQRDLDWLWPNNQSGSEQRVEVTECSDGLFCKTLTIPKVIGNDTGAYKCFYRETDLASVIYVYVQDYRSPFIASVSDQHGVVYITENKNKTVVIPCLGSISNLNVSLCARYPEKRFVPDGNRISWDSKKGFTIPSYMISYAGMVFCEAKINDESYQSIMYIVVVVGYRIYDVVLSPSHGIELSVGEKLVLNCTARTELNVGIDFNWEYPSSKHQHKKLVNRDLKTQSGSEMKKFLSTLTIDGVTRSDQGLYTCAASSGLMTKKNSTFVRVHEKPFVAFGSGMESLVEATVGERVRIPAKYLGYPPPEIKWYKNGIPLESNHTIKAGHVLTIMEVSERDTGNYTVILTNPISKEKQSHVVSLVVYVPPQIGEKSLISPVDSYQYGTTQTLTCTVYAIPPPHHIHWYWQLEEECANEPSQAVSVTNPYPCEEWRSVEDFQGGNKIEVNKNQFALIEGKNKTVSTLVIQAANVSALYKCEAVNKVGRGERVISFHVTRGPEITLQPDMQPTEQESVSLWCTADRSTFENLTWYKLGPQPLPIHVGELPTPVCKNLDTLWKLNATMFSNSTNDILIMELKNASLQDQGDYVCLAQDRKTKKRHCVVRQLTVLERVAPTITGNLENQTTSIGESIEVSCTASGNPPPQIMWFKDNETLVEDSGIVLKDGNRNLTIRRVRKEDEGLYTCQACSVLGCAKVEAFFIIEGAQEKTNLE

B1: VEGF-C156S: VEGFR-3 specific mutant form of VEGF-C, cysteine 156 changed into serine; recombinant human (Thr103 to Ile225) (protein, UniProt P49767 103-225, looked up, variant C156S)
chain: TEETIKFAAAHYNTEILKSIDNEWRKTQCMPREVCIDVGKEFGVATNTFFKPPSVSVYRCGGCCNSEGLQCMNTSTSYLSKTLFEITVPLSQGPKPVTISFANHTSCRCMSKLDVYRQVHSII
no binding: KD | Ka | Kd
